Measured values from patent US20200247855A1, “THERAPY AND DIAGNOSTICS” (OXFORD UNIVERSITY INNOVATION LIMITED, priority 2017, published 2020).
“Also recorded” adds a separate entry of the source.

T1: CXCL11_HUMAN (Homo sapiens, UniProt O14625)
T1 sequence (O14625 22-94): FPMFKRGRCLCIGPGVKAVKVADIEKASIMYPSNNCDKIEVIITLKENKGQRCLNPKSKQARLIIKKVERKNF

T2: CCL22_HUMAN (Homo sapiens, UniProt O00626)
T2 sequence (O00626 25-93): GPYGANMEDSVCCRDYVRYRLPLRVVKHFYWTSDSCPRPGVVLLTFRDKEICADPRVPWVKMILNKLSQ

T3: CCL1_HUMAN (Homo sapiens, UniProt P22362)
T3 sequence (P22362 24-96): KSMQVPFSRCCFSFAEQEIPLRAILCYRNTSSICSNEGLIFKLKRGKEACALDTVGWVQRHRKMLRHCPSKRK

T4: CCL5_HUMAN (Homo sapiens, UniProt P13501)
T4 sequence (P13501 24-91): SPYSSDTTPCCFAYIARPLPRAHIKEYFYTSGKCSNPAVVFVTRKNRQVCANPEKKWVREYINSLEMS

T5: CCL17_HUMAN (Homo sapiens, UniProt Q92583)
T5 sequence (Q92583 24-94): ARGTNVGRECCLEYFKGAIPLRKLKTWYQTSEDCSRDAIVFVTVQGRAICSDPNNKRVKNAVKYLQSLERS

T6: CCL4L1_HUMAN (Homo sapiens, UniProt Q8NHW4)
T6 sequence (Q8NHW4 24-92): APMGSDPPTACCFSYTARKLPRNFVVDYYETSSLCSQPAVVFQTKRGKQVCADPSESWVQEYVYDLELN

T7: CCL8_HUMAN (Homo sapiens, UniProt P80075)
T7 sequence (P80075 24-99): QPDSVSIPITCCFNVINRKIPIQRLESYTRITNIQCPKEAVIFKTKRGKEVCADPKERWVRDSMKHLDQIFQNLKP

T8: CCL4_HUMAN (Homo sapiens, UniProt P13236)
T8 sequence (P13236 24-92): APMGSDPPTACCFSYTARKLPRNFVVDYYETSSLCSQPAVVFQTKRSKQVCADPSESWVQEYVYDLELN

T9: CCL3_HUMAN (Homo sapiens, UniProt P10147)
T9 sequence (P10147 24-92): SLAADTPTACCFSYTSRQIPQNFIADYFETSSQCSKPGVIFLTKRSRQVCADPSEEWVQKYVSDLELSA

T10: CCL14_HUMAN (Homo sapiens, UniProt Q16627)
T10 sequence (Q16627 20-93): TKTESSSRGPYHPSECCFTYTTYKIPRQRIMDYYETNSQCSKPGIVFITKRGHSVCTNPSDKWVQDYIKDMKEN

T11: CCL18_HUMAN (Homo sapiens, UniProt P55774)
T11 sequence (P55774 21-89): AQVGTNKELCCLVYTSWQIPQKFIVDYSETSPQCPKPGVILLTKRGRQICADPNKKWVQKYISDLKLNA

T12: CCL16_HUMAN (Homo sapiens, UniProt O15467)
T12 sequence (O15467 24-120): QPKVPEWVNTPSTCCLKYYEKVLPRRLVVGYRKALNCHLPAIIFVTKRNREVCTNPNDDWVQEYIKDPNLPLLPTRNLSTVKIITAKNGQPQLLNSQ

T13: CCL24_HUMAN (Homo sapiens, UniProt O00175)
T13 sequence (O00175 27-119): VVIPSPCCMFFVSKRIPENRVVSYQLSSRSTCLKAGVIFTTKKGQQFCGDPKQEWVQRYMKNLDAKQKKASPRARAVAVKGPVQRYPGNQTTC


Experiments:
CXCL11_HUMAN = biological target: T1, CXCL11_HUMAN; assay: Yeast surface display (YSD) FACS binding; conditions: FACS re-test; mean percent shift where several clones
Method in brief: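 Yeast clones displaying tick peptides were re-tested by FACS with labelled chemokine detected by streptavidin-Alexa conjugate. Binding was scored as % of peptide-expressing cells above a background set with streptavidin-Alexa alone, averaged over independent clones. In the screen tables, >3-fold over background mean fluorescence intensity was scored as binding.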

CCL22_HUMAN = biological target: T2, CCL22_HUMAN; assay: Biolayer interferometry (BLI) binding
Method in brief: (§1)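 Binding was measured by biolayer interferometry with the His-tagged tick protein bound to Ni-NTA sensors. A single-concentration screen used chemokine at 300 nM. Chemokines that bound were retested over multiple doses, and Kd was calculated from fitted curves.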

CCL1_HUMAN = biological target: T3, CCL1_HUMAN; assay: Biolayer interferometry (BLI) binding
Method in brief: as §1

CCL7_HUMAN = CCL7_HUMAN (Homo sapiens, UniProt P80098); assay: Biolayer interferometry (BLI) binding
CCL7_HUMAN, sequence (P80098 24-99): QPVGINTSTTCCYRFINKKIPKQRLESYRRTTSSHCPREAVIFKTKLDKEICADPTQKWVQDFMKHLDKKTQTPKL
Method in brief: as §1

CCL5_HUMAN = biological target: T4, CCL5_HUMAN; assay: Biolayer interferometry (BLI) binding
Method in brief: as §1

CCL17_HUMAN = biological target: T5, CCL17_HUMAN; assay: Biolayer interferometry (BLI) binding
Method in brief: as §1

CCL4L1_HUMAN = biological target: T6, CCL4L1_HUMAN; assay: Biolayer interferometry (BLI) binding
Method in brief: as §1

CCL8_HUMAN = biological target: T7, CCL8_HUMAN; assay: Biolayer interferometry (BLI) binding; conditions: read-out: Kd, CCL8_HUMAN
Method in brief: as §1

CCL11_HUMAN = CCL11_HUMAN (Homo sapiens, UniProt P51671); assay: Biolayer interferometry (BLI) binding
CCL11_HUMAN, sequence (P51671 24-97): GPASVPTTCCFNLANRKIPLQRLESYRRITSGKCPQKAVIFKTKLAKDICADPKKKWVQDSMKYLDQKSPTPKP
Method in brief: as §1

CCL4_HUMAN = biological target: T8, CCL4_HUMAN; assay: Biolayer interferometry (BLI) binding
Method in brief: as §1

CCL3_HUMAN = biological target: T9, CCL3_HUMAN; assay: Biolayer interferometry (BLI) binding
Method in brief: as §1

CCL2_HUMAN = CCL2_HUMAN (Homo sapiens, UniProt P13500); assay: Biolayer interferometry (BLI) binding
CCL2_HUMAN, sequence (P13500 24-99): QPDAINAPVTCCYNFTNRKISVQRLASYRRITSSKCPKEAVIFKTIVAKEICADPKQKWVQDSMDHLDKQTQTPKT
Method in brief: as §1

CCL3L1_HUMAN = CCL3L1_HUMAN (Homo sapiens, UniProt P16619); assay: Biolayer interferometry (BLI) binding
CCL3L1_HUMAN, sequence (P16619 24-93): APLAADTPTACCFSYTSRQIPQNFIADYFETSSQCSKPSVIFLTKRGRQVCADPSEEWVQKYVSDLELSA
Method in brief: as §1

CCL13_HUMAN = CCL13_HUMAN (Homo sapiens, UniProt Q99616); assay: Biolayer interferometry (BLI) binding
CCL13_HUMAN, sequence (Q99616 17-98): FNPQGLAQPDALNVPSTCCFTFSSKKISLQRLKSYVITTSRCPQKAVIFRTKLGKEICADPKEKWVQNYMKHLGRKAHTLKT
Method in brief: as §1

CCL14_HUMAN = biological target: T10, CCL14_HUMAN; assay: Biolayer interferometry (BLI) binding
Method in brief: as §1

CCL18_HUMAN = biological target: T11, CCL18_HUMAN; assay: Biolayer interferometry (BLI) binding
Method in brief: as §1

chemokines = conditions: list of chemokines bound, from the literature [18,20-22]; cited from earlier work
[1] = tested on: human CCL5 together with CXCL8, CXCL1, CCL3 or CCL2; assay: Biolayer interferometry polyvalent binding (association with CCL5, then CCL5 plus second chemokine); conditions: BLI, wavelength shift in association 2
From the text: FIG. 10. Polyvalent binding of CC and CXC chemokines to two-warhead evasins. […] This was followed by association with CCL5+CXCL8 (light grey trace), or with CCL5+CXCL1 (dark grey trace) or CCL5+CCL3 (black trace) (association 2), and then dissociated in buffer (dissociation).
FIG. 11. Polyvalent binding of CC and CXC chemokines to two-warhead evasins. […] This was followed by association with CCL5+CXCL8 (light grey trace), or with CCL5+CXCL1 (dark grey trace) or CCL5+CCL2 (black trace) (association 2), and then dissociated in buffer (dissociation).
The ability of 2-warhead evasins to engage in polyvalent binding of CC and CXC chemokines was further determined.

CCL16_HUMAN = biological target: T12, CCL16_HUMAN; assay: Biolayer interferometry (BLI) binding
Method in brief: as §1

CCL24_HUMAN = biological target: T13, CCL24_HUMAN; assay: Biolayer interferometry (BLI) binding
Method in brief: as §1

| Molecule | Chemokines bound in yeast surface display and % cells over threshold fluorescence: CXCL11_HUMAN (CXCL11_HUMAN) | Kd (CCL1_HUMAN) [nM] | Kd (CCL7_HUMAN) [nM] | Kd (CCL4L1_HUMAN) [nM] | Kd (CCL8_HUMAN) [nM] | Kd (CCL11_HUMAN) [nM] | Kd (CCL4_HUMAN) [nM] | Kd (CCL3_HUMAN) [nM] | Kd (CCL2_HUMAN) [nM] | Kd (CCL3L1_HUMAN) [nM] | Kd (CCL13_HUMAN) [nM] | Kd (CCL18_HUMAN) [nM] | Polyvalent (simultaneous) binding of CC and CXC chemokines [1] | other results |
| --- | --- | --- | --- | --- | --- | --- | --- | --- | --- | --- | --- | --- | --- | --- |
| P942_IXORI: novel CXC-binding tick CKBP, Ixodes ricinus (protein, listed as Ixodes ricinus) NQLSGPQSSANSNEAVFCDTNCTQGTDEAWSGCRGDCFCVYVGNSTEGRCMMLSGDFDYSTPGAED | CXCL11_HUMAN 37% | – | – | – | – | – | – | – | – | – | – | – | – | – |
| P974_AMBCA: tick CKBP, Amblyomma cajennense; ACA-01 stated identical (protein, Amblyomma cajennense, tick CKBP, Amblyomma cajennense; ACA-01 stated identical) ENTQQEEQDYDYGTDTCPFPVLANKTNKAKFVGCHQKCNGGDQKLTDGTACYVVERKVWDRMTPMLWYECPLGECKNGVCEDLRKKEDCRKGNGEEK | – | 70.5 | 41.2 | 23.2 | 2.58 | 17 | 30.2 | 7.97 | 93 | 13.1 | 22.9 | 17 | – | Kd (CCL22_HUMAN): 16.5 nM; Kd (CCL5_HUMAN): 160 nM; Kd (CCL17_HUMAN): 70.6 nM; Kd (CCL14_HUMAN): 49.1 nM; Previously described chemokine binding (chemokines): CCL11, CCL24,; also recorded: CCL26, CCL2,; also recorded: CCL8, CCL7 |
| P546_AMBCA: tick CKBP, Amblyomma cajennense (protein, Amblyomma cajennense) ENTQQEEEDYDYGTDTCPFPVLANKTNKAKFVGCHQKCNGGDQKLTDGTACYVVERKVWDRMTPMLWYSCPLGECKNGVCEDLRKKEECRKGNGEEK | – | 160 | 90 | 8.9 | 1.3 | 8.7 | 27 | 15 | 83 | 15 | 13 | 16 | – | Kd (CCL22_HUMAN): 27 nM; Kd (CCL17_HUMAN): 70 nM; Kd (CCL14_HUMAN): 28 nM |
| SEQ ID NO: 80: two-warhead evasin: P1156_IXORI linked via GGGGS linker to P991_AMBCA (protein, hybrid polypeptide, two-warhead evasin: P1156_IXORI linked via GGGGS linker to P991_AMBCA) ADDDNELFTVQYCGMNCTKDEGGTWTGCTGKKEGCKCYHESGKNYGLCLSTEYTDFSQYGNPSDSEIEAAKPKRSDTLSHGGGGSENGEGTTQPDYDNSTDYYNYEDFKCTCPAPHLNNTNGTVMKPIGCYYTCNVTRCTAPDTYPCYNLTEHQAKNLTTSPTTLCAVGNCDHGICVPNGTKELCFKAPNLEE | – | – | – | – | – | – | – | – | – | – | – | – | can associate simultaneously with CCL5 and either CXCL8 or CXCL1 | – |
| P985_AMBPA: tick CKBP, Amblyomma parvum (protein, listed as Amblyomma parvum) DEESEELGASTDVDYEELDANCTCPAPALTSTRNNKHYPLGCIYNCSSYNCTIPDGTPCYVLTLGEVKEHLQIGSTVPNCTCGLCRNGTCVSNGTVEECFAVEEIEET | – | 8.3 | 61 | 21 | 6.5 | 8 | 46 | 8.9 | 17 | 7.5 | 89 | 430 | – | Kd (CCL5_HUMAN): 3.5 nM; Kd (CCL16_HUMAN): 45 nM; Kd (CCL24_HUMAN): 41 nM |
| P1090_IXORI: novel CXC-binding tick CKBP, Ixodes ricinus (protein, listed as Ixodes ricinus) GSKELSGPESSENSIEAAFCDTNCTEGTDGVWSGCSAGCFCVHVGNSTVGRCMTFNGVDGG | CXCL11_HUMAN 32% | – | – | – | – | – | – | – | – | – | – | – | – | – |
| P1078_IXORI: novel CXC-binding tick CKBP, Ixodes ricinus (protein, listed as Ixodes ricinus) GSKGSSAQQSSHDSIKAEFCETNCTMKTGGKWTQCHGGCFCVHVGNETVGRCIKLDGDYDYPSSKHEE | CXCL11_HUMAN 38% | – | – | – | – | – | – | – | – | – | – | – | – | – |
| P675_IXORI: novel CXC-binding tick CKBP, Ixodes ricinus (protein, listed as Ixodes ricinus) GSNQLSGPQSSANSNDAVFCDTNCTQGTDGAWSGCRGDCFCVHVGNSTEGRCIELIGDFDYSTPGAED | CXCL11_HUMAN 55% | – | – | – | – | – | – | – | – | – | – | – | – | – |
| SEQ ID NO: 81: two-warhead evasin: P1156_IXORI linked via GGGGS linker to P1243_AMBAM (protein, hybrid polypeptide, two-warhead evasin: P1156_IXORI linked via GGGGS linker to P1243_AMBAM) ADDDNELFTVQYCGMNCTKDEGGTWTGCTGKKEGCKCYHESGKNYGLCLSTEYTDFSQYGNPSDSEIEAAKPKRSDTLSHGGGGSRNHTEDNSTEYYDYEEARCACPARHLNNTNGTVLKLLGCHYFCNGTLCTAPDGYPCYNLTAQQVRTLTTYPNTSCAVGVCMKGTCVKNGTMEQCFKTP | – | – | – | – | – | – | – | – | – | – | – | – | can associate simultaneously with CCL5 and either CXCL8 or CXCL1 | – |
| SEQ ID NO: 73: two-warhead evasin: P991_AMBCA linked via GGGGS linker to P1156_IXORI (protein, hybrid polypeptide, two-warhead evasin: P991_AMBCA linked via GGGGS linker to P1156_IXORI) ENGEGTTQPDYDNSTDYYNYEDFKCTCPAPHLNNTNGTVMKPIGCYYTCNVTRCTAPDTYPCYNLTEHQAKNLTTSPTTLCAVGNCDHGICVPNGTKELCFKAPNLEEGGGGSADDDNELFTVQYCGMNCTKDEGGTWTGCTGKKEGCKCYHESGKNYGLCLSTEYTDFSQYGNPSDSEIEAAKPKRSDTLSH | – | – | – | – | – | – | – | – | – | – | – | – | can associate simultaneously with CCL5 and either CXCL8 or CXCL1 | – |
